Data on two molecules can be found in patent US20240016949A1 (SHANGHAI FUDAN ZHANGJIANG BIO PHARMACEUTICAL, published 2024).

The target of the test is T1, FcγRIIa (CD32a) (UniProt P12318 34-317, limits assumed).
T1 sequence (looked up): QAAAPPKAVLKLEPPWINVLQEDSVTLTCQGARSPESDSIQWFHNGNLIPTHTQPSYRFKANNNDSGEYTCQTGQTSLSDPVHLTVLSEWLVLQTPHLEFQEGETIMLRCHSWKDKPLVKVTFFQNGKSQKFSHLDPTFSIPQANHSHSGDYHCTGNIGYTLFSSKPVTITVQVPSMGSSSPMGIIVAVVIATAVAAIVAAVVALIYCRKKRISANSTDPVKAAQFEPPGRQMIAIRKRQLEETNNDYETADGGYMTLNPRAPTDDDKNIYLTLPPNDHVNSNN
Nature of the test: cell-based or functional assay.

B1: antibody-drug conjugate FDA028-LE14 (antibody, human IgG1, kappa)
light: not shown
heavy: QVQLQQWGAGLLKPSETLSLTCAVYGGSFSGYYWSWIRQPPGKGLEWIGEINHSGSTNYNPSLKSRVTISVETSKNQFSLKLSSVTAADTAVYYCARDKWTWYFDLWGRGTLVTVSSASTKGPSVFPLAPSSKSTSGGTAALGCLVKDYFPEPVTVSWNSGALTSGVHTFPAVLQSSGLYSLSSVVTVPSSSLGTQTYICNVNHKPSNTKVDKKVEPKSCDKTHTCPPCPAPPVAGGPSVFLFPPKPKDTLMISRTPEVTCVVVDVSHEDPEVKFNWYVDGVEVHNAKTKPREEQYNSTYRVVSVLTVLHQDWLNGKEYKCKVSNKALPAPIEKTISKAKGQPREPQVYTLPPSREEMTKNQVSLTCLVKGFYPSDIAVEWESNGQPENNYKTTPPVLDSDGSFFLYSKLTVDKSRWQQGNVFSCSVMHEALHNHYTQKSLSLSPGK
modifications: LE14 linker-drug as thioether on cysteines of reduced interchain disulfides; DAR 7.63 for the whole antibody
In the case of B1, the “IC50 value (nM), killing activity on HSC Cell” value came out at 334 nM and the “IC50 value (nM), killing activity on K562 Cell” value came out at 270 nM.

B2: antibody-drug conjugate FDA029-LE14 (antibody, human IgG1, kappa)
light: not shown
heavy: QVQLQQWGAGLLKPSETLSLTCAVYGGSFSGYYWSWIRQPPGKGLEWIGEINHSGSTNYNPSLKSRVTISVETSKNQFSLKLSSVTAADTAVYYCARDKWTWYFDLWGRGTLVTVSSASTKGPSVFPLAPSSKSTSGGTAALGCLVKDYFPEPVTVSWNSGALTSGVHTFPAVLQSSGLYSLSSVVTVPSSSLGTQTYICNVNHKPSNTKVDKKVEPKSCDKTHTCPPCPAPEFEGGPSVFLFPPKPKDTLMISRTPEVTCVVVDVSHEDPEVKFNWYVDGVEVHNAKTKPREEQYNSTYRVVSVLTVLHQDWLNGKEYKCKVSNKALPASIEKTISKAKGQPREPQVYTLPPSREEMTKNQVSLTCLVKGFYPSDIAVEWESNGQPENNYKTTPPVLDSDGSFFLYSKLTVDKSRWQQGNVFSCSVMHEALHNHYTQKSLSLSPGK
modifications: LE14 linker-drug as thioether on cysteines of reduced interchain disulfides; DAR 7.82 for the whole antibody
As to B2, the “IC50 value (nM), killing activity on HSC Cell” value worked out at 363 nM and the “IC50 value (nM), killing activity on K562 Cell” value turned out to be 323 nM.
